One series has as its system zebrafish RHBDL2. The series is described as follows: Zebrafish RHBDL2 knockout by antisense morpholino injection into embryos. It counts as in vivo, Zebrafish (Danio rerio). The note with it: injected into 1-4 cell embryos at 2-4 μM, assessed after 24 and 48 hours. As to the method: Knockout of the zebrafish RHBDL2 was performed by standard procedures (McClintock J M, Kheirbek M A, Prince V E. 2002. Development. 129, 2339-2354.). A morpholino antisense oligonucleotide ([…]) SEQ.ID. 7 complementary to the region of the cDNA surrounding the start of translation was injected into 1-4 cell embryos at 2-4 μM. After 24 and 48 hours the phenotype was assessed and compared with wild-type embryos of equivalent stages. In situ hybridisation to RHBDL2 was performed by standard techniques.
To investigate the role of vertebrate Rhomboids, the zebrafish homologue of human RHBDL2 (sequenced from cDNA clone 2652120, GenBank accession number AW422344) was knocked out using the standard technology of antisense morpholino oligonucleotides (reviewed in Heasman J. Dev Biol. Mar. 15, 2002;243(2):209-14), which allows the rapid removal of a gene function. Zebrafish embryos are a common model system as their embryonic development is easily observed.

The target in a further series is T1, Rhomboid-1 (Drosophila melanogaster, UniProt P20350).
T1 construct: When co-expressed with Star and full-length Rhomboid-1 in the COS cell Spitz cleavage assay; expressed in transfected cells; host or cells: COS cells, pcDNA3.1 constructs, transient transfection
T1 sequence (P20350 1-355): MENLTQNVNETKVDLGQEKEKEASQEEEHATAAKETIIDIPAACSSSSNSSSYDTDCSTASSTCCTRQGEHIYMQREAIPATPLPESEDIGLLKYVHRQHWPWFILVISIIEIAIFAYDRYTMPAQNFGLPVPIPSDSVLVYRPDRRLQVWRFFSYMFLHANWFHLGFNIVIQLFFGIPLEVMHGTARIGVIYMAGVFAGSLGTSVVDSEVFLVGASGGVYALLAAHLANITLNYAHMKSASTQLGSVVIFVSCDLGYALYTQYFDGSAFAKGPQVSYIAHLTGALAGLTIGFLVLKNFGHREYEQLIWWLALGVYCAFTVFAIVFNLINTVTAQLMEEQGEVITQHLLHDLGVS
In words: Rhomboid-1 and Star dependent cleavage of GFP-Spitz in transfected COS cells (western blot of medium). The series is classed as cell-based. To be noted: co-expressed with Star and full-length Rhomboid-1 in COS cells. As to the method: COS cells were grown in DMEM medium (supplemented with 10% foetal calf serum), and transfected with FuGENE 6 Transfection Reagent (Roche). Cells were transfected in 35 mm culture wells with 25-250 ng of each construct and empty plasmid to bring the total DNA to 1 μg per well. 24-30 hours post-transfection the medium was replaced with serum-free medium; this was harvested 24 hours later and cells were lysed in SDS-sample buffer. GFP was detected in conditioned medium and cell lysates by western blot with a rabbit polyclonal antibody. For some experiments the serum-free medium was supplemented with the metalloprotease inhibitor batimastat (British Biotech) or ilomostat (Calbiochem). Cells were transfected as standard with 1 ng of Rhomboid-1 DNA (in 1 μg total DNA) and were then incubated in serum-free medium for 24 hours. The medium was then replaced with 0.5 ml serum free medium containing protease inhibitor at the indicated concentration and incubated for 1 hour. After 1 hour, the medium was collected, cleared by centrifugation, dialysed overnight against several changes of water and lyophilised. The resulting pellets were re-suspended in SDS sample buffer, boiled and analysed by Western blot. Transfections with a secreted form of Spitz were used in parallel to control for non-specific toxicity of the protease inhibitors or general inhibition of the secretory pathway. The proteolytic cleavage assay was recapitulated in a mammalian tissue culture system. Spitz was tagged with GFP near its N-terminus and transiently expressed in COS cells, in the presence or absence of Star and/or Rhomboid-1. The accumulation of the soluble extracellular fragment of GFP-Spitz in the cell medium was then measured by western blot.

The test system of a further series is release of TGFα. The series is described as follows: Release/secretion of TGFα from transfected COS cells. It counts as cell-based, human. The note with it: expression of truncated Rhomboid-1, compared with control. On the procedure: COS cells were grown in DMEM medium (supplemented with 10% foetal calf serum), and transfected with FuGENE 6 Transfection Reagent (Roche). Cells were transfected in 35 mm culture wells with 25-250 ng of each construct and empty plasmid to bring the total DNA to 1 μg per well. 24-30 hours post-transfection the medium was replaced with serum-free medium; this was harvested 24 hours later and cells were lysed in SDS-sample buffer. GFP was detected in conditioned medium and cell lysates by western blot with a rabbit polyclonal antibody. For some experiments the serum-free medium was supplemented with the metalloprotease inhibitor batimastat (British Biotech) or ilomostat (Calbiochem).
Spitz, Star and Rhomboid-1 are the only Drosophila proteins present in the transfected mammalian cells. A possible hypothesis is that these proteins are able to recruit a mammalian protease to a processing complex. If this were the case, the principle candidate for the putative mammalian protease would be a member of the ADAM family of metalloproteases. These proteases have broad specificity and are responsible for the release of a large number of mammalian growth factors, including the Spitz homolog, TGFα. The possible involvement of these proteases was tested with the potent metalloprotease inhibitor batimastat (British Biotechnology) at 1 μM and 10 μM. […]

For the molecule “anti-sense morpholino oligo TCTTGCTCTTCGGTGTCATTATCGC: morpholino antisense oligonucleotide complementary to the region of zebrafish RHBDL2 cDNA surrounding the start of translation (all phosphorodiamidate morpholino (PMO))”, the “embryo phenotype after knockout” value with zebrafish RHBDL2 is “specific defects in the brain, the otic placode and the tail”.

B1: Rho-1-NTM1: residues 1 to 149 of Rhomboid-1: N-terminal cytoplasmic domain plus first TMD and part of first extracellular loop; dominant negative (protein, UniProt P20350 1-149, looked up, fragment)
chain: MENLTQNVNETKVDLGQEKEKEASQEEEHATAAKETIIDIPAACSSSSNSSSYDTDCSTASSTCCTRQGEHIYMQREAIPATPLPESEDIGLLKYVHRQHWPWFILVISIIEIAIFAYDRYTMPAQNFGLPVPIPSDSVLVYRPDRRLQ
Regarding B1, the “ability of wild-type Rhomboid-1 to promote GFP-Spitz cleavage” value with Rhomboid-1 was “inhibited”. Besides, the “TGFα synthesis or secretion” value in the series with release of TGFα is “did not interfere”.

The values are drawn from patent US7718391B2, “Assays for identifying modulators of rhomboid polypeptides” (Medical Research Council, priority 2001, dated 2010).
